Values quoted from earlier work, collected in US20080031874A1, “Treatment of endotoxemia using endotoxin neutralizing agents” (priority 2006, published 2008).

Key:
[1] = test system: gram-negative bacteria

B1: LBP: glycoprotein present in serum that recognizes the lipid A region of LPS (protein, UniProt P18428 26-481, looked up)
Lipopolysaccharide-binding …: ANPGLVARITDKGLQYAAQEGLLALQSELLRITLPDFTGDLRIPHVGRGRYEFHSLNIHSCELLHSALRPVPGQGLSLSISDSSIRVQGRWKVRKSFFKLQGSFDVSVKGISISVNLLLGSESSGRPTVTASSCSSDIADVEVDMSGDLGWLLNLFHNQIESKFQKVLESRICEMIQKSVSSDLQPYLQTLPVTTEIDSFADIDYSLVEAPRATAQMLEVMFKGEIFHRNHRSPVTLLAAVMSLPEEHNKMVYFAISDYVFNTASLVYHEEGYLNFSITDDMIPPDSNIRLTTKSFRPFVPRLARLYPNMNLELQGSVPSAPLLNFSPGNLSVDPYMEIDAFVLLPSSSKEPVFRLSVATNVSATLTFNTSKITGFLKPGKVKVELKESKVGLFNAELLEALLNYYILNTFYPKFNDKLAEGFPLPLLKRVQLYDLGLQIHKDFLFLGANVQYMRV
complexes with rough and smooth form LPS: high affinity, 1:1 stoichiometric complexes
direct cytotoxicity for gram-negative bacteria [1]: not directly cytotoxic
